The results in this text go back to the DeepSol protein solubility set.

This series in a line: soluble on expression in E. coli; label from the status in PepcDB or PDB records.
In the case of “MSEPEEQQPDIHTTAGKLADLRRRIEEATHAGSARAVEKQHAKGKLTARERIDLLLDEGSFVELDEFARHRSTNFGLDANRPYGDGVVTGYGTVDGRPVAVFSQDFTVFGGALGEVYGQKIVKVMDFALKTGCPVVGINDSGGARIQEGVASLGAYGEIFRRNTHASGVIPQISLVVGPCAGGAVYSPAITDFTVMVDQTSHMFITGPDVIKTVTGEDVGFEELGGARTHNSTSGVAHHMAGDEKDAVEYVKQLLSYLPSNNLSEPPAFPEEADLAVTDEDAELDTIVPDSANQPYDMHSVIEHVLDDAEFFETQPLFAPNILTGFGRVEGRPVGIVANQPMQFAGCLDITASEKAARFVRTCDAFNVPVLTFVDVPGFLPGVDQEHDGIIRRGAKLIFAYAEATVPLITVITRKAFGGAYLVMGSKHLGADLNLAWPTAQIAVMGAQGAVNILHRRTIADAGDDAEATRARLIQEYEDALLNPYTAAERGYVDAVIMPSDTRRHIVRGLRQLRTKRESLPPKKHGNIPL”, the “soluble on expression in E. coli” value is “soluble”. The entry for “MGSDKIHHHHHHMRGMMLGMLAETHIHSGAGRSEGFVDLPVAREAVTSYPVIAGSSLKGALRDAARERGMDESIFGDQDRAGDVLVSDARLLLLPVRSLTGSYRWVTCPHILERLSRDMRLCGISDGFEGASVERGKACCTDDLNQIFLEEREFQRSNGIDGALIDALKKMVPHKQTASRLERQLVIISDDDFGWFASYGLPVIARNKLDDNKKSKNLWYEEALAPDTLMYAMVFERKDGALGKVQSMFETKPYLQLGGNETVGMGWFAVKILEQGEGR” is “not soluble”; for “MADESYDALSRGNKSNLRNEVVDMKKKPFSILFMGIEDYATKGQKGRSDSLIVVTLDPKNKTMKMLSIPRDTRVQLAGDTTGSKTKINAAYSKGGKDETVETVENFLQIPIDKYVTVDFDGFKDVINEVGGIDVDVPFDFDEKSDVDESKRIYFKKGEMHLNGEEALAYARMRKQDKRGDFGRNDRQKQILNALIDRMSSASNIAKIDKIAEKASENVETNIRITEGLALQQIYSGFTSKKIDTLSITGSDLYLGPNNTYYFEPDATNLEKVRKTLQEHLDYTPLEHHHHHH” it is “soluble”. Take “GAMGNICNSGGVSRTYSPPTSPVYGSGVSSPSRFVGQYTLTSIHQLSSEERENFLDAHDPMRVYDLNSETSVYRTTQREYVRNGYATGNPNSGAIIALHEELQESPYAQHIGARPDQADAYRPRTAHVSSLNTPSLNVMAGQGALSALRGYAGSDHVTTEMRLGDFLDQGGKVYSDTSAMSAGGDSVEALIVTLPKGRKVPVNILD”: the “soluble on expression in E. coli” value is “soluble”. The entry for “MSSVYDFNVKNANGDDVSLSDYKGKVLIIVNVASQCGLTNKNYTQLKELLDVYKKDGLEVLAFPCNQFAGQEPSCEIDIQAFVADKFKFEPTLFQKIDVNGDKQSPLFKFLKNEKGGFMFDAIKWNFTKFLVGRDGKIIKRFGPTTDPKDMEKDIKEALGEKL” is “not soluble”; for “MKNLSLFTDFYEISMMNAYFTKGINPKAKFEVFFRKTPFKNGYIVLAGMHTLINELKNIRFGENELKYLKSFNILDKQFLNFLREFKLNVKISSIEEGRIVFPQAPVVVIEGHLIELLLIEGLVLNIINFESLIATKTARIKESGAKILAELGLRRAQGINGALSASKAAYIGGADFTSNMLAGYKYNIPVTGTMAHSWIMSFETEEQAFREYAKTYPNKVSLLIDTYDTLNSGLKNAIKIFKELKHEEKNNFSIRIDSGDLEYLSKAARKELNRNGLNHVKIIASNELDENIIMYLNSINAPIDIWGVGTNLVTAKGDPSLSGVYKMISIEKNGKFIPKIKISNNAEKSTLPDQKEVARIYLNDQMILDFIFLKEEKDKIKDHLNSRKEFTVFHPIQDNIFKIIKQYDDFEFLTHTVLENGKLRKGYESSLTNIRNKTKLDLSKLEHTYKRIINPHIYKVSISKNLRKLKNKLTKDIKNN” it is “not soluble”. In the case of “MAKKVRSVHECSECGYSSPKWLGRCPECGSWGSMEERTVGESGGAARAAVSGAAPAGLTPTSPAVPIGKIVASQATSISTGIGELDRVLGNGIVPGSVVLMAGEPGVGKSTLLLEVASRWASMKEGDGTRTALYVTAEESAGQVRLRAERTAAVKDTLYLAAESNLDVVFGHVNQVKPSLLIVDSVQTMHAAGVEGVAGGVAQSRAVTAALTTLAKTSGIPILLVGHVTKDGNVAGPRVLEHLVDVVLNFEGDRHSSLRMLRGIKNRFGATDEVGCFEQQSDGIKEVPDPSGLFLSHRGSTPDGTAVTVAMDGVRPLLAEVQSLLVDAPSKNPRRVVTGLDANRVPMVLAVLSARAGRQTQGKDAYVATVGGMKVGEPATDLAVALATASALAKKPLPDKTVVLGEVGLAGEIRRVPNVDRRLAEAERLGYEKAVIPGGSGIKQTSLRVIEASTLAEALAAVSLLEHHHHHH” it was “not soluble”. The entry for “MFTTYKNINELENAYDEERKQLNDAFNQIDELRHQTRKKCEQMYDHFLYLKHKMNYSEDAMIRMTRIIESFDRETNQRIRHHEMKLEDYKDELRREYLKQSDRIEGDELEHHHHHH” is “not soluble”; for “MSLQTDDPMIVAHRAGTRDFPENTVLAITNAVAAGVDGMWLTVQVSSDGVPVLYRPSDLATLTDGAGPVNSKTVQQLQQLNAGWNFTTPGVEGHPYRQRATPIPTLEQAIGATPPDMTLFLDLKQTPPQPLVSAVAQVLTRTGAAGRSIVYSTNADITAAASRQEGLQVAESRDVTRQRLFNMALNHHCDPQPDPGKWAGFELHRDVTVTEEFTLGSGISAVNAELWDEASVDCFRSQSGMKVMGFAVKTVDDYRLAHKIGLDAVLVDSPLAAQQWRHEGHHHHHH” it is “not soluble”; for “MGGPGETQIEADRRLLQDRIVKLEKELEQVVRTRQLHRAKRRKVPHPIVALVGYTNAGKSTLFNRITGAGVLAEDMLFATLDPTLRRMKLPHGRTVILSDTVGFISDLPTHLVAAFRATLEEVLEADLVLHVRDMSDPDNAAQSADVLRILGDLGIDEKEAEKRIIEVWNKVDRLEPEAHDAIMQRAEGRSDIRAVSAITGEGVDALMEEISKRLSGVLTETTVVLSVEQLPLISWVYSNSIVDNREDHEDGSVALDVRLSEAQAVELERKLGKTAGREREDWERAAALEHHHHHH” it is “not soluble”. For the sequence “MNASAPIPLNETQRLLRIQELCVLEDTSDEVFDEIVAMTAEFFQTPIALVSIVDEHRQWFRARVGLSARETPRNVSFCAYTILSDTLFEIPDATLDERFMNNSLVTGHPDIRYYAGAPLITDDGLALGSLCVIDTKPREPMSEHQTQMLKRFASLVMKRIVSLRL”, the “soluble on expression in E. coli” value is given as “not soluble”.

On to “MSLIHIAIAEDDFRVAQIHERLIKQLDGFKIIGKAANAKETLALLKEHKADLLLLDIYMPDELGTALIPDIRSRFPEVDIMIITAATETRHLQEALRAGIAHYLIKPVTADKFRQVLLQYKEKRKLLMSQPKGIITITTDPNSSSVDKLAAALEHHHHHH”, for which the “soluble on expression in E. coli” value is reported as “soluble”. In the case of “MSQATQQLDETRLALADALQAGNWDAIGELDQVCQVKIDQAMHDDERDEQALRVSLEQLLSLYNDMLSACRQQREAIGAELTGLQRASKGAKVYQMFG” it was “not soluble”; in that of “MGSDKIHHHHHHMKILIYGAGVLGSYAAYELKRVGHEVTILARSSRYEELKEKGLVIRHWFQRKTTKNKINVVKELLPEEYYDAVFIVMQSSQTNAILPVITANVKCPLFVFVGNQDKAKDISEKIKSTSKSNPRVLFGFFSIGGRREGGKVISVHTKHPDFDIGDLEGRDDYKIIIEKIFKETSFKLHYHVNMDDFFKTHIVVIMPLAYLAYMSNCDLRKIAWNRKALNAVIDAMIEGHEVLIKLGHKVDPESSERLLRNHRKVAYLGLKVCAMTPLGKLGISDHCKSGWREMEYLDKRLLEWAKKSNLETPNINKLREHLIKYVHKKVI”, “not soluble”. Turning to “MGSDKIHHHHHHMMDYFSMTSHQDTKPSAQTSQWPVPTDSVRYVIPEPIVRQLAHHPLTRELYPLAFGHYRRAAGHHMHREHHRDNLLIYCTDGKAFLNVAGEPYTVTAGDLLLLPAGVSHRYTADPDNPWTIHWVHYTGPLAEDFGQYMGFDDSTRIRHLGRQPRLLVDFNGLLSVRQTGFRARGLIHASNRLRQLLAAVPINADETSQARQAELDSLHSFMREHLEERLTLNQLAELSGLSPAHFATRYREQTGTSPIQHFLHLKVERACELLDTTSQSFADISRQLGYDDAYYFSRLFKKVMGKSPTDYRHTARH”, the “soluble on expression in E. coli” value is recorded as “not soluble”.
